The values that follow are results of earlier work, collected in article PMC2744096.

As usually defined, the Kd is the free concentration of one partner at which half of the binding sites on the other are occupied at equilibrium, for simple one-to-one binding.

The target in this data set is MLL (Homo sapiens) (UniProt Q03164).

Turning to CBP KIX (from UniProt Q92793), the Kd is 3000 nM.
